Data from publication PMC9140564 (International Journal of Molecular Sciences, 2022).

T1: pre-S1 oligopeptide of amino acids 25-38 (Hepatitis B virus, strain  …)
T1 construct: pre-S1 region of the hepatitis B virus large surface protein, amino acids 25-38; One of several oligopeptides spanning pre-S1 21-47; also called peptide containing amino acids 25–38; source: synthetic peptide
T1 chain: FPDHQLDPAFGANS


Columns and labels:
[1] = molecular target: T1, pre-S1 oligopeptide of amino acids 25-38; experiment: ELISA; antigen protein or peptide coated on the plate (0.1 ng/uL, or 10-fold serial dilutions), 4 °C overnight; purified monoclonal antibody added (serial dilutions or 1:2000 in PBST); PBST pH 7.4 washes; anti-mouse IgG-HRP, chemiluminescence read-out; conditions: both partners purified
[2] = molecular target: T2, recombinant pre-S region protein of the HBV large surface protein (LHBS) (Hepatitis B virus, strain ; …, UniProt P03141); experiment: as above; conditions: both partners purified
T2 construct: also called pre-S region E. coli recombinant protein; source: E. coli BL21 (pET21b, IPTG 0.2 mM), purified
T2 sequence (P03141 whole entry, looked up): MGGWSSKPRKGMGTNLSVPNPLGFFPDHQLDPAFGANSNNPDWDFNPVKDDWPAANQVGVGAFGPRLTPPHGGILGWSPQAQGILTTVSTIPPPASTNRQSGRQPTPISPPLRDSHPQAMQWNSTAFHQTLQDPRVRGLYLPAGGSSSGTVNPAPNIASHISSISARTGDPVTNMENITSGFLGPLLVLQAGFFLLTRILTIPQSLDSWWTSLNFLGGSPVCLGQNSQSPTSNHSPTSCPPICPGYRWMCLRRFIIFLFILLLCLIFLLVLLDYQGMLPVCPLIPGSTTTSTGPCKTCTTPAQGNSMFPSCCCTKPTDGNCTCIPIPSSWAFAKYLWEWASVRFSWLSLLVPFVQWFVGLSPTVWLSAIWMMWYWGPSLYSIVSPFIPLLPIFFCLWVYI

[3] = molecular target: T3, large HBV surface protein (LHBS), full-length, expressed in 293T cells (Hepatitis B virus, strain ; …, UniProt P03141); experiment: ELISA; lysates of 293T cells transfected with LHBS genes with partial deletions, tested for recognition by the monoclonal antibody; conditions: one partner purified
T3 construct: hepatitis B virus large surface protein: pre-S1 (119 a.a.), pre-S2 (55 a.a.) and S (227 a.a.) regions as printed; also called the full-length; source: 293T cells, transfected, in lysate
T3 sequence (P03141 whole entry): as the sequence (P03141 whole entry, looked up) above

| Binder | binding result [1] | binding result [2] | binding result [3] |
| --- | --- | --- | --- |
| anti-pre-S1 mouse monoclonal antibody (clone N-term-7-21-5) (antibody, V domains shown, heavy chain CDR1; heavy chain CDR2; heavy chain CDR3; kappa light chain CDR1; kappa light chain CDR2; kappa light chain CDR3; Only the six CDRs are printed; Coating antibody of the sandwich ELISA; also called pre-S1 antibody; LHBS-specific antibody; source: mouse hybridoma, ascites fluid, purified using IgG beads) VH: DVQLQESGPGLVKPSQSLSLTCTVTGYSITSDYAWNWIRQFPGNKLEWMGYIRYSGTTNYNPSLKSRISITRDTSKNQFFLQLNSVTTEDTATYYCARGGTGLTYWGQGTLVTVSA VL: NIVMTQSPKSMSMSLGERVTLTCKASENVGTYVSWYQQKPEQSPKLLIYGASNRNTGVPDRFTGSGPATDFTLTISSVQAEDLADYLCGQTYNYPFTFGAGTKLELK | binds | binds | – |
| anti-pre-S2 mouse monoclonal antibody (antibody, V domains shown, heavy chain CDR1; heavy chain CDR2; heavy chain CDR3; kappa light chain CDR1; kappa light chain CDR2; kappa light chain CDR3; Only the six CDRs are printed; Aliquots were conjugated with biotin for use as detection antibody in the sandwich ELISA; also called pre-S2 antibody; anti-pre-S2 region antibody; source: mouse hybridoma, ascites fluid, purified using IgG beads) VH: QVQLQQPGTELVKPGTSVKLSCKASGYTFTSYWMHWVKLRPGQGFEWIGEINPSNGITNYNEKFKRKATLTVDKSSTTAYMQLSSLTFEDSAVYYCTIGYDYGSNYEAMDFWGQGTSVTVSS VL: DIVMTQAAFSNPVTLGTSASMSCRSSKSLLHSNGITYLYWYLQKPGQSPQLLIYQMSNLASGVPDRFSSGGSGTDFTLRISRVEAEDVGVYYCAQNLELPWTFGGGTKLEIK | – | binds | binds |
